1 substance from paper PMC4737141 can be followed below.

In the assay the target is Recombinant human Tipin-His6 (human) (UniProt Q9BVW5). Kind of assay: SPR.
UniProt Q9BVW5, sequence (Q9BVW5 whole entry): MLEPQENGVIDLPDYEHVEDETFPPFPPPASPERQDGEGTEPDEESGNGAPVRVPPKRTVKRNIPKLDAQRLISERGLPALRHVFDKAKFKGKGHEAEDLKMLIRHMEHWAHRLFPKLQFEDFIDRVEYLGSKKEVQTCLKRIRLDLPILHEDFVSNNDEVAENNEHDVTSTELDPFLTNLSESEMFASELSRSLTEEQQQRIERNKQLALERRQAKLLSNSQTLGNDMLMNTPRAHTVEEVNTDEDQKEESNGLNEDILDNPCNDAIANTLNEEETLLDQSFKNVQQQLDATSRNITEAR

Take “Recombinant human DDX11-3xFLAG (from UniProt Q96FC9 1-970) (enzyme)”: the dissociation constant Kd – broadly, the free concentration of one partner at which half of the binding sites on the other are occupied at equilibrium, for simple one-to-one binding – stood at 655 nM.
